Results from patent publication US20060040324A1.
Where no end group is shown, it is not given here. [ ]: non-standard residue; d: D form.

Assays:
[1] = molecular target: GP IIb/IIIa platelet receptor (integrin heterodimeric glycoprotein IIb/IIIa) (human) (UniProt P08514); test: radioligand saturation binding to fresh human blood clots
tuftsin receptor (human) [2] = test: radioligand saturation binding, fresh and formalin-fixed human PMN leukocytes, filtration
tuftsin receptor (human) [3] = test: radioligand saturation binding, fresh and formalin-fixed HL-60 cells, filtration
[4] = molecular target: GP IIb/IIIa platelet receptor (integrin heterodimeric glycoprotein IIb/IIIa) (human) (UniProt P08514); test: competition with trace 99mTc-labeled peptide on activated formalin-fixed human platelets
[5] = molecular target: GP IIb/IIIa platelet receptor (integrin heterodimeric glycoprotein IIb/IIIa) (human) (UniProt P08514); test: radioligand saturation binding, ADP-activated formalin-fixed human platelets, filtration
[6] = molecular target: GP IIb/IIIa platelet receptor (integrin heterodimeric glycoprotein IIb/IIIa) (human) (UniProt P08514); test: radioligand saturation binding, ADP-activated human platelets in platelet rich plasma, filtration
[7] = molecular target: GP IIb/IIIa platelet receptor (integrin heterodimeric glycoprotein IIb/IIIa) (human) (UniProt P08514); test: radioligand saturation binding to human blood clots, carrier-free preparation
tuftsin receptor (human) [8] = test: competition with 99mTc-labeled peptide on HL-60 cells
tuftsin receptor (human) [9] = test: competition with trace 99mTc-labeled peptide on formalin-fixed human PMN leukocytes
tuftsin receptor (human) [10] = test: cell-based or functional assay
tuftsin receptor (human) [11] = test: competition with 99mTc-labeled peptide on HL-60 cells; remark: listed apart in the source
tuftsin receptor (human) [12] = test: binding to human leukocytes

UniProt P08514, sequence (P08514 32-1039, chain 1 of 2): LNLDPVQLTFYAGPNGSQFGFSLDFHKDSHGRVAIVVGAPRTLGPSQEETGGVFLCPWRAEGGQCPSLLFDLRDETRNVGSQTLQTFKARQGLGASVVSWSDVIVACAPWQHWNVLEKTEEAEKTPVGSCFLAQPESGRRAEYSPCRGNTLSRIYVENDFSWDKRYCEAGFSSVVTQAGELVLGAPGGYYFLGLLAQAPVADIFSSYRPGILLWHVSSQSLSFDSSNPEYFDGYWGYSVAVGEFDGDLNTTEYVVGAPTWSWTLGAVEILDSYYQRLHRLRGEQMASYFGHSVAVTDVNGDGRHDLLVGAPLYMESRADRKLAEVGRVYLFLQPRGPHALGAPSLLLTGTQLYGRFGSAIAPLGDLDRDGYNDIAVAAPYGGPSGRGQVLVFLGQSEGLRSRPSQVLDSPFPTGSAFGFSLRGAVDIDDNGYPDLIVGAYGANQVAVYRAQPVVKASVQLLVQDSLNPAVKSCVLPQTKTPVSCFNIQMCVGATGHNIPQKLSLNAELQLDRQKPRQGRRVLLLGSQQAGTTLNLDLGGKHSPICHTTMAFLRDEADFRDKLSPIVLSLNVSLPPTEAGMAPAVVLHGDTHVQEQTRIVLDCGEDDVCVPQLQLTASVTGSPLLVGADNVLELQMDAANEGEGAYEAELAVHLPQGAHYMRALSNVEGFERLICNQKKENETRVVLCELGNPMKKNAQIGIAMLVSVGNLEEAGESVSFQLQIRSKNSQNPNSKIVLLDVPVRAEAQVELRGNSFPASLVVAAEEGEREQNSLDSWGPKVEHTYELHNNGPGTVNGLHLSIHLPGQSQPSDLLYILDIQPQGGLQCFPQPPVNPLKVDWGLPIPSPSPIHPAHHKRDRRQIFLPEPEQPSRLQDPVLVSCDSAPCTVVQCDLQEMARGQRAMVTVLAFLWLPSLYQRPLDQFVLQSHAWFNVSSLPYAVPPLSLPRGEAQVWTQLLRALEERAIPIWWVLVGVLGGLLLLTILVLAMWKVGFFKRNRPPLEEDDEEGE
UniProt P08514, sequence (P05106 27-788, chain 2 of 2, further chain): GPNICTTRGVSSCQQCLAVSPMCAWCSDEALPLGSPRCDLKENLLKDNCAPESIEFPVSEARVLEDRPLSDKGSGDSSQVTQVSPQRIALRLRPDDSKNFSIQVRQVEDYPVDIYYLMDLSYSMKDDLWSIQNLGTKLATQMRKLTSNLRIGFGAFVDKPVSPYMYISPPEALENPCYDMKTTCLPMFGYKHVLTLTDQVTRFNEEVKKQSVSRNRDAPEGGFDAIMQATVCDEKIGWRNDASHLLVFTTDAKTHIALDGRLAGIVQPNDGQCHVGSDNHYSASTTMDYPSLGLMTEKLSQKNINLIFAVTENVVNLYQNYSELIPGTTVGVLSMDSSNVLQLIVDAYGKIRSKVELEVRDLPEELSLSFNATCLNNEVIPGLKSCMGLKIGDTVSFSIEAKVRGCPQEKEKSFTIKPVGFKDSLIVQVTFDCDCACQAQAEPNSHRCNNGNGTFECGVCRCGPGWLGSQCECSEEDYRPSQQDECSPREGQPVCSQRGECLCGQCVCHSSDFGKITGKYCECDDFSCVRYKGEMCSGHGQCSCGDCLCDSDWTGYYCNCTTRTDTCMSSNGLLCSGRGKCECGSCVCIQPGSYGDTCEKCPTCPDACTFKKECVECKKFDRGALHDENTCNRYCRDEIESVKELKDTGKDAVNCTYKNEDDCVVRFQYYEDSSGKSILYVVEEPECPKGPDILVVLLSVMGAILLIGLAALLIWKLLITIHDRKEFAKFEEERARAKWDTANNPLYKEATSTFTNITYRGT

A Kd [1] of 5 to 20 nM was found for “^99mTc-labeled PEG8000-D-Arg-Gly-D-Cys-β-Ala (peptide)” in this work.

A Kd (tuftsin receptor (human) [2]) of 1 to 5 nM and a Kd (tuftsin receptor (human) [3]) of 1 to 5 nM were found for “^99mTc-Thr-[D-Lys-Gly-D-Cys]-Arg (peptide)” in this work.

An IC50 [4] of 5 to 10 nM was found for ^99Tc-[D-Arg-Gly-D-Cys]-β-Ala (peptide) in this work.

A Kd [5] of 5 to 10 nM, a Kd [6] of 5 to 10 nM and a Kd [1] of 5 to 10 nM were found for “^99mTc-[D-Arg-Gly-D-Cys]-β-Ala (peptide)” in this work. It also gave a Kd [7] of 5 to 10 nM.

An IC50 (tuftsin receptor (human) [8]) of 1 to 5 nM and an IC50 (tuftsin receptor (human) [9]) of 1 to 5 nM were found for “^99Tc-Thr-[D-Lys-Gly-D-Cys]-Arg (peptide)” in this work.

B1: Thr-ReO[V]-[D-Lys-Gly-D-Cys]-Arg (peptide)
peptide: T[dK]G[dC]R
modifications: also: ReO[V] complexed to D-Lys-Gly-D-Cys
A nitroblue tetrazolium dye reduction (hexose monophosphate shunt activity) in human PMN granulocytes: concentration of maximum stimulation (tuftsin receptor (human) [10]) of 1 to 5 nM and a stimulation of phagocytosis of heat inactivated yeast cells by human PMN granulocytes: concentration of maximal stimulation (tuftsin receptor (human) [10]) of 1 nM were found for B1 in this work.

B2: natural tuftsin Thr-Lys-Pro-Arg (peptide)
peptide: TKPR
A nitroblue tetrazolium dye reduction (hexose monophosphate shunt activity) in human PMN granulocytes: concentration of maximal stimulation (tuftsin receptor (human) [10]) of 100 nM, an IC50 (tuftsin receptor (human) [9]) of 100 nM and an IC50 (tuftsin receptor (human) [11]) of 100 nM were found for B2 in this work.

B3: Thr-D-Lys-Gly-D-Cys-Arg (unlabeled, not complexed to a metal ion) (peptide)
peptide: T[dK]G[dC]R
An IC50 (tuftsin receptor (human) [9]) of 2000 to 5000 nM and a Kd (tuftsin receptor (human) [12]) of 100000 nM were found for B3 in this work.
